Assay results as given in patent US20220242961A1 (ABL BIO, published 2022).

Legend:
[1] = target: T1, 4-1BB (antigen of the Octet kinetics) (human, UniProt Q07011 24-186, limits assumed); experiment: Octet Red 96 kinetics
T1 construct: the whole entry is named
Text: To explore the binding kinetics of the humanized antibody, this example performed the affinity ranking by using Octet Red 96.

human 4-1 BB-Fc protein = target: T2, human 4-1 BB-Fc protein (human, UniProt Q07011 24-186); experiment: ELISA on plate-coated human 4-1BB-Fc (0.1 ug/ml), goat anti-human IgG-HRP, TMB
T2 construct: also called extracellular domain 4-1 BB antigen; not shown: Fc part
Procedure: To evaluate the antigen binding activity, the antibody candidates were subjected to ELISA test. Briefly, microtiter plates were coated with human 4-1 BB-Fc protein at 0.1 μg/ml in PBS, 100 μl/well at 4° C. overnight, then blocked with 100 μl/well of 5% BSA. Serial dilutions of antibodies obtained in Example 1.1 were added to each well and incubated for 1-2 hours at RT. The plates were washed with PBS/Tween and then incubate with goat-anti-human IgG antibody conjugated with Horse Radish Peroxidase (HRP) for 1 hour at RT. After washing, the plates were developed with TMB substrate and analyzed by spectrophotometer at OD 450-630 nm.

Row | Binder | Kd [1] [nM] | koff [1] [s⁻¹] | kon [1] [M⁻¹ s⁻¹] | EC50 (read off the curve) (human 4-1 BB-Fc protein) [nM]
1 | 41B03 (antibody, human IgG4 S228P, V domains shown) VH: EVQLLESGGGLVQPGGSLRLSCAASGFTFSSNVMNWVRQAPGKGLEWVSEISHSGSTNYNPSLKSRFTISRDNSKNTLYLQMNSLRAEDTAVYYCAVGAGNLGYWGQGTLVTVSS VL: EIVLTQSPGTLSLSPGERATLSCQASQDISNYLNWYQQKPGQAPRLLIYGASSRATGIPDRFSGSGSGTDFTLTISRLEPEDFAVYYCQQYNSYPITFGQGTKLEIKR | 0.79 | 0.000597 | 755000 | 
2 | 41B02 (antibody, human IgG4 S228P, lambda, V domains shown, also called anti-4-1BB antibody 41B02; 41B02 clone) VH: EVQLLESGGGLVQPGGSLRLSCAASGFTFSGYDMSWVRQAPGKGLEWVSVIYPDDGNTYYADSVKGRFTISRDNSKNTLYLQMNSLRAEDAAVYYCAKHGGQKPTTKSSSAYGMDGWGQGTLVTVSS VL: QSVLTQPPSASGTPGRRVTISCSGSSSNIGNNYVTWYQQLPGTAPKLLIYADSHRPSGVPDRFSGSKSGTSASLAISGLRSEDEADYYCATWDYSLSGYVFGGGTKLTVLG |  |  |  | ~0.03
3 | 41B02.01 (antibody, human IgG4 S228P, lambda, V domains shown) VH: EVQLLESGGGLVQPGGSLRLSCAASGFTFSGYDMSWVRQAPGKGLEWVSVIYPDDGNTYYADSVKGRFTISRDNSKNTLYLQMNSLRAEDTAVYYCAKHGGQKPTTKSSSAYGMDGWGQGTLVTVSS VL: QSVLTQPPSASGTPGQRVTISCSGSSSNIGNNYVTWYQQLPGTAPKLLIYADSHRPSGVPDRFSGSKSGTSASLAISGLRSEDEADYYCATWDYSLSGYVFGGGTKLTVLG |  |  |  | ~0.03
